Earlier results, collected in patent US20100068187A1, “TRANSCRIPTION FACTORS FOR DIFFERENTIATION OF ADULT HUMAN OLFACTORY PROGENITOR CELLS” (priority 2006, published 2010).

B1: GDNF: glial-derived neurotrophic factor (protein, UniProt P39905 78-211, looked up)
Glial cell line-derived …: SPDKQMAVLPRRERNRQAAAANPENSRGKGRRGQRGKNRGCVLTAIHLNVTDLGLGYETKEELIFRYCSGSCDAAETTYDKILKNLSRNRRLVSDKVGQACCRPIAFDDDLSFLDDNLVYHILRKHSAKRCGCI
B2: BDNF: brain-derived neurotrophic factor (protein, UniProt P23560 19-247, looked up)
Neurotrophic factor BDNF …: APMKEANIRGQGGLAYPGVRTHGTLESVNGPKAGSRGLTSLADTFEHVIEELLDEDQKVRPNEENNKDADLYTSRVMLSSQVPLEPPLLFLLEEYKNYLDAANMSMRVRRHSDPARRGELSVCDSISEWVTAADKKTAVDMSGGTVTVLEKVPVSKGQLKQYFYETKCNPMGYTKEGCRGIDKRHWNSQCRTTQSYVRALTMDSKKRIGWRFIRIDTSCVCTLTIKRGR

Tested on: Human NSFCs
Settings: incubated in the presence of neurotrophic factor

Row | Molecule | neuronal differentiation of human NSFCs
1 | B1 | refractory to neuronal differentiation
2 | B2 | refractory to neuronal differentiation
